Patent US12649778
Several values for one entry are separate records, joined by “and”; a condition that tells them apart may be missing. Equal values may be shown once.

B1: 65D3 chimeric Fab, NNK library L3 mutant S to A (VL S25A) (Fab, V domains shown)
VH: QSLEESGGRLVTPGGSLTLTCTVSGFSLSTHDISWVRQAPGKGLEWIGVIARRGSTYYASWAKGRFTISKTSTTVDLKITSPTIEDTATYFCAREEFDFWGQGTLVTVSS
VL: AVLTQTASPVSAAVGGTVTISCQSAQSVYNNKELSWFQQKPGQPPKLLISYASTLASGVPSRFKGSGSGTQFTLTISDLECDDAATYYCLGGYASTIDMWAFGGGTEVVVK
B2: 65D3 chimeric Fab, NNK library L3 mutant S to H (VL S25H) (Fab, V domains shown)
VH: QSLEESGGRLVTPGGSLTLTCTVSGFSLSTHDISWVRQAPGKGLEWIGVIARRGSTYYASWAKGRFTISKTSTTVDLKITSPTIEDTATYFCAREEFDFWGQGTLVTVSS
VL: AVLTQTASPVSAAVGGTVTISCQSHQSVYNNKELSWFQQKPGQPPKLLISYASTLASGVPSRFKGSGSGTQFTLTISDLECDDAATYYCLGGYASTIDMWAFGGGTEVVVK
B3: 65D3 chimeric Fab, NNK library L5 mutant S to T (VL S27T) (Fab, V domains shown)
VH: QSLEESGGRLVTPGGSLTLTCTVSGFSLSTHDISWVRQAPGKGLEWIGVIARRGSTYYASWAKGRFTISKTSTTVDLKITSPTIEDTATYFCAREEFDFWGQGTLVTVSS
VL: AVLTQTASPVSAAVGGTVTISCQSSQTVYNNKELSWFQQKPGQPPKLLISYASTLASGVPSRFKGSGSGTQFTLTISDLECDDAATYYCLGGYASTIDMWAFGGGTEVVVK
B4: 65D3 chimeric Fab, NNK library H17 mutant S to W (H-S55W) (Fab, V domains shown)
VH: QSLEESGGRLVTPGGSLTLTCTVSGFSLSTHDISWVRQAPGKGLEWIGVIARRGWTYYASWAKGRFTISKTSTTVDLKITSPTIEDTATYFCAREEFDFWGQGTLVTVSS
VL: AVLTQTASPVSAAVGGTVTISCQSSQSVYNNKELSWFQQKPGQPPKLLISYASTLASGVPSRFKGSGSGTQFTLTISDLECDDAATYYCLGGYASTIDMWAFGGGTEVVVK
B5: 65D3 chimeric Fab, NNK library L20 mutant S to T (L-S57T) (Fab, V domains shown)
VH: QSLEESGGRLVTPGGSLTLTCTVSGFSLSTHDISWVRQAPGKGLEWIGVIARRGSTYYASWAKGRFTISKTSTTVDLKITSPTIEDTATYFCAREEFDFWGQGTLVTVSS
VL: AVLTQTASPVSAAVGGTVTISCQSSQSVYNNKELSWFQQKPGQPPKLLISYASTLATGVPSRFKGSGSGTQFTLTISDLECDDAATYYCLGGYASTIDMWAFGGGTEVVVK
B6: 65D3 chimeric Fab, NNK library L5 mutant S to Y (VL S27Y) (Fab, V domains shown)
VH: QSLEESGGRLVTPGGSLTLTCTVSGFSLSTHDISWVRQAPGKGLEWIGVIARRGSTYYASWAKGRFTISKTSTTVDLKITSPTIEDTATYFCAREEFDFWGQGTLVTVSS
VL: AVLTQTASPVSAAVGGTVTISCQSSQYVYNNKELSWFQQKPGQPPKLLISYASTLASGVPSRFKGSGSGTQFTLTISDLECDDAATYYCLGGYASTIDMWAFGGGTEVVVK
B7: 65D3 chimeric Fab, NNK library L8 mutant N to R (VL N30R) (Fab, V domains shown)
VH: QSLEESGGRLVTPGGSLTLTCTVSGFSLSTHDISWVRQAPGKGLEWIGVIARRGSTYYASWAKGRFTISKTSTTVDLKITSPTIEDTATYFCAREEFDFWGQGTLVTVSS
VL: AVLTQTASPVSAAVGGTVTISCQSSQSVYRNKELSWFQQKPGQPPKLLISYASTLASGVPSRFKGSGSGTQFTLTISDLECDDAATYYCLGGYASTIDMWAFGGGTEVVVK
B8: 65D3 chimeric Fab, NNK library L5 mutant S to F (VL S27F) (Fab, V domains shown)
VH: QSLEESGGRLVTPGGSLTLTCTVSGFSLSTHDISWVRQAPGKGLEWIGVIARRGSTYYASWAKGRFTISKTSTTVDLKITSPTIEDTATYFCAREEFDFWGQGTLVTVSS
VL: AVLTQTASPVSAAVGGTVTISCQSSQFVYNNKELSWFQQKPGQPPKLLISYASTLASGVPSRFKGSGSGTQFTLTISDLECDDAATYYCLGGYASTIDMWAFGGGTEVVVK
B9: 65D3 chimeric Fab, NNK library L5 mutant S to M (VL S27M) (Fab, V domains shown)
VH: QSLEESGGRLVTPGGSLTLTCTVSGFSLSTHDISWVRQAPGKGLEWIGVIARRGSTYYASWAKGRFTISKTSTTVDLKITSPTIEDTATYFCAREEFDFWGQGTLVTVSS
VL: AVLTQTASPVSAAVGGTVTISCQSSQMVYNNKELSWFQQKPGQPPKLLISYASTLASGVPSRFKGSGSGTQFTLTISDLECDDAATYYCLGGYASTIDMWAFGGGTEVVVK
B10: 65D3 chimeric Fab, NNK library H26 mutant G to K (H-G64K) (Fab, V domains shown)
VH: QSLEESGGRLVTPGGSLTLTCTVSGFSLSTHDISWVRQAPGKGLEWIGVIARRGSTYYASWAKKRFTISKTSTTVDLKITSPTIEDTATYFCAREEFDFWGQGTLVTVSS
VL: AVLTQTASPVSAAVGGTVTISCQSSQSVYNNKELSWFQQKPGQPPKLLISYASTLASGVPSRFKGSGSGTQFTLTISDLECDDAATYYCLGGYASTIDMWAFGGGTEVVVK
B11: 65D3 chimeric Fab, NNK library L3 mutant S to L (VL S25L) (Fab, V domains shown)
VH: QSLEESGGRLVTPGGSLTLTCTVSGFSLSTHDISWVRQAPGKGLEWIGVIARRGSTYYASWAKGRFTISKTSTTVDLKITSPTIEDTATYFCAREEFDFWGQGTLVTVSS
VL: AVLTQTASPVSAAVGGTVTISCQSLQSVYNNKELSWFQQKPGQPPKLLISYASTLASGVPSRFKGSGSGTQFTLTISDLECDDAATYYCLGGYASTIDMWAFGGGTEVVVK
B12: 65D3 chimeric Fab, NNK library L3 mutant S to K (VL S25K) (Fab, V domains shown)
VH: QSLEESGGRLVTPGGSLTLTCTVSGFSLSTHDISWVRQAPGKGLEWIGVIARRGSTYYASWAKGRFTISKTSTTVDLKITSPTIEDTATYFCAREEFDFWGQGTLVTVSS
VL: AVLTQTASPVSAAVGGTVTISCQSKQSVYNNKELSWFQQKPGQPPKLLISYASTLASGVPSRFKGSGSGTQFTLTISDLECDDAATYYCLGGYASTIDMWAFGGGTEVVVK
B13: 65D3 chimeric Fab, NNK library L5 mutant S to K (VL S27K) (Fab, V domains shown)
VH: QSLEESGGRLVTPGGSLTLTCTVSGFSLSTHDISWVRQAPGKGLEWIGVIARRGSTYYASWAKGRFTISKTSTTVDLKITSPTIEDTATYFCAREEFDFWGQGTLVTVSS
VL: AVLTQTASPVSAAVGGTVTISCQSSQKVYNNKELSWFQQKPGQPPKLLISYASTLASGVPSRFKGSGSGTQFTLTISDLECDDAATYYCLGGYASTIDMWAFGGGTEVVVK
B14: 65D3 chimeric Fab, NNK library L8 mutant N to K (VL N30K) (Fab, V domains shown)
VH: QSLEESGGRLVTPGGSLTLTCTVSGFSLSTHDISWVRQAPGKGLEWIGVIARRGSTYYASWAKGRFTISKTSTTVDLKITSPTIEDTATYFCAREEFDFWGQGTLVTVSS
VL: AVLTQTASPVSAAVGGTVTISCQSSQSVYKNKELSWFQQKPGQPPKLLISYASTLASGVPSRFKGSGSGTQFTLTISDLECDDAATYYCLGGYASTIDMWAFGGGTEVVVK
B15: 65D3 chimeric Fab, NNK library L3 mutant S to R (VL S25R) (Fab, V domains shown)
VH: QSLEESGGRLVTPGGSLTLTCTVSGFSLSTHDISWVRQAPGKGLEWIGVIARRGSTYYASWAKGRFTISKTSTTVDLKITSPTIEDTATYFCAREEFDFWGQGTLVTVSS
VL: AVLTQTASPVSAAVGGTVTISCQSRQSVYNNKELSWFQQKPGQPPKLLISYASTLASGVPSRFKGSGSGTQFTLTISDLECDDAATYYCLGGYASTIDMWAFGGGTEVVVK
B16: 65D3 chimeric Fab, NNK library L5 mutant S to V (VL S27V) (Fab, V domains shown)
VH: QSLEESGGRLVTPGGSLTLTCTVSGFSLSTHDISWVRQAPGKGLEWIGVIARRGSTYYASWAKGRFTISKTSTTVDLKITSPTIEDTATYFCAREEFDFWGQGTLVTVSS
VL: AVLTQTASPVSAAVGGTVTISCQSSQVVYNNKELSWFQQKPGQPPKLLISYASTLASGVPSRFKGSGSGTQFTLTISDLECDDAATYYCLGGYASTIDMWAFGGGTEVVVK
B17: 65D3 chimeric Fab, NNK library L3 mutant S to T (VL S25T) (Fab, V domains shown)
VH: QSLEESGGRLVTPGGSLTLTCTVSGFSLSTHDISWVRQAPGKGLEWIGVIARRGSTYYASWAKGRFTISKTSTTVDLKITSPTIEDTATYFCAREEFDFWGQGTLVTVSS
VL: AVLTQTASPVSAAVGGTVTISCQSTQSVYNNKELSWFQQKPGQPPKLLISYASTLASGVPSRFKGSGSGTQFTLTISDLECDDAATYYCLGGYASTIDMWAFGGGTEVVVK

How the values were obtained:
[1] = molecular target: Peptide 1593 (…) (Mycobacterium tuberculosis); test: ELISA, NNK clone supernatant on coated peptide (22 hits)
[2] = molecular target: Peptide 1593 (…) (Mycobacterium tuberculosis); test: ELISA, NNK clone supernatant on coated peptide

Row | Binder | OD450 nm [1] [OD450] | ratio (OD450 to WT OD450) [1] | OD450 nm [2] | ratio (OD450 to WT OD450) [2]
1 | B1 | 0.972 | 1.21 fold of WT | 0.972 OD450 | 1.21 fold of WT
2 | B2 | 0.95 | 1.18 fold of WT | 0.95 OD450 and 0.97 OD450 | 1.18 fold of WT and 1.2 fold of WT
3 | B3 | 1.11 | 1.43 fold of WT | 1.11 OD450 | 1.43 fold of WT
4 | B4 |  |  | 1.28 OD450 | 2.06 fold of WT
5 | B5 |  |  | 0.977 OD450 | 2.05 fold of WT
6 | B6 | 1.12 | 1.44 fold of WT | 1.1 OD450 and 1.12 OD450 | 1.41 fold of WT and 1.44 fold of WT
7 | B7 | 0.958 | 1.26 fold of WT |  | 
8 | B8 | 1.11 | 1.43 fold of WT | 1.11 OD450 | 1.43 fold of WT
9 | B9 | 1.14 | 1.47 fold of WT | 1.16 OD450 and 1.14 OD450 | 1.49 fold of WT and 1.47 fold of WT
10 | B10 |  |  | 1.09 OD450 | 1.3 fold of WT
11 | B11 | 0.954 | 1.18 fold of WT | 0.954 OD450 | 1.18 fold of WT
12 | B12 | 0.982 | 1.22 fold of WT | 0.982 OD450 | 1.22 fold of WT
13 | B13 | 1.16 | 1.49 fold of WT | 1.16 OD450 | 1.49 fold of WT
14 | B14 | 1.04 | 1.37 fold of WT | 1.04 OD450 and 1.03 OD450 | 1.37 fold of WT and 1.35 fold of WT
15 | B15 | 0.963 | 1.19 fold of WT | 0.963 OD450 and 0.995 OD450 and 1.04 OD450 | 1.19 fold of WT and 1.23 fold of WT and 1.29 fold of WT
16 | B16 | 1.09 | 1.41 fold of WT | 1.09 OD450 | 1.41 fold of WT
17 | B17 | 0.956 | 1.19 fold of WT | 0.956 OD450 | 1.19 fold of WT
